Measurements published in paper PMC4822050, “Hemi-methylated DNA opens a closed conformation of UHRF1 to facilitate its histone recognition” (Nature Communications, 2016).

T1: TTD (residues 134–285) of UHRF1 (Homo sapiens, UniProt Q96T88)
T1 construct: TTD (residues 134–285); GST (N, cleaved yes); made in house; host or cells: E. coli BL21 (DE3)
T1 sequence (Q96T88 134-285): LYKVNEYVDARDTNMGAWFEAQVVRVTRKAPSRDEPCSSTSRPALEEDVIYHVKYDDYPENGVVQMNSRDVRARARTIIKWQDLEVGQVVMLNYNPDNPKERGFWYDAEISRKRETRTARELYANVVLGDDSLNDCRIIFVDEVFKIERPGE

T2: Spacer (residues 587–674) of UHRF1 (Homo sapiens, UniProt Q96T88)
T2 construct: Spacer (residues 587–674); GST (N, cleaved yes); made in house; host or cells: E. coli BL21 (DE3)
T2 sequence (Q96T88 587-674): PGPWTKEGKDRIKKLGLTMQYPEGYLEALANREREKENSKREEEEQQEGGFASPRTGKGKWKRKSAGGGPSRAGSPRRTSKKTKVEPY


Tests used:
[1] = target: T1, TTD (residues 134–285) of UHRF1; assay: ITC, TTD titrated into Spacer variants and other UHRF1 fragments; assay type: binding; settings: TTD in syringe; for N: ITC stoichiometry; for ΔH / ΔS: ITC
Description: (§1) For competition ITC experiments: the indicated proteins were pre-incubated with competitive peptide, protein or hm-DNA (at 1:2 molar ratio if not specified) for 10 min followed by ITC measurements as described above. Proteins, DNA and peptides were prepared within ITC buffer containing 10 mM HEPES, pH 8.0, 100 mM NaCl. The data were fitted by software Origin 7.0. All ITC results were summarized in Supplementary Table 2 and raw data were shown in Supplementary Fig. 9.

[2] = target: T2, Spacer (residues 587–674) of UHRF1; assay: ITC, interaction of UHRF1 domains with the Spacer; assay type: binding; settings: for N: ITC stoichiometry
Description: as §1

[3] = ITC, 18 °C, Spacer in syringe, named protein in cell, 10 mM HEPES pH 8.0, 100 mM NaCl
[4] = ITC, Fig. 3e, wild-type or mutant TTD in syringe, Spacer in cell

N [1]	ΔH [1]	ΔS [1] [cal/mol/deg]	Molecule	further results
0.891±0.0733	-3.833 ± 0.4259 kcal/mol	9.58	Spacer ∆642-651: internal deletion of the Spacer, residues 642–651 (protein, left off: GST, end not stated, cleaved) PGPWTKEGKDRIKKLGLTMQYPEGYLEALANREREKENSKREEEEQQEGGFASPRAGGGPSRAGSPRRTSKKTKVEPY	
0.659±0.0209	-8.45 ± 0.3659 kcal/mol	-5.07	SpacerK648D: mutation K648D of the Spacer (protein, left off: GST, end not stated, cleaved, mutation K648D of the Spacer) PGPWTKEGKDRIKKLGLTMQYPEGYLEALANREREKENSKREEEEQQEGGFASPRTGKGKWDRKSAGGGPSRAGSPRRTSKKTKVEPY	
1.08±0.0104	-1.219E4±159.8 cal/mol	-14.9	SpacerS666D: mutation S666D of the Spacer, negative control (protein, left off: GST, end not stated, cleaved, mutation S666D of the Spacer, negative control) PGPWTKEGKDRIKKLGLTMQYPEGYLEALANREREKENSKREEEEQQEGGFASPRTGKGKWKRKSAGGGPSRAGSPRRTDKKTKVEPY	
1.06±0.0256	-8.277 ± 0.352 kcal/mol	-7.04	SpacerR649A: mutation R649A of the Spacer (protein, left off: GST, end not stated, cleaved, mutation R649A of the Spacer) PGPWTKEGKDRIKKLGLTMQYPEGYLEALANREREKENSKREEEEQQEGGFASPRTGKGKWKAKSAGGGPSRAGSPRRTSKKTKVEPY	
0.998±0.0189		-19.3	SpacerS651D: mutation S651D of the Spacer (protein, left off: GST, end not stated, cleaved, mutation S651D of the Spacer) PGPWTKEGKDRIKKLGLTMQYPEGYLEALANREREKENSKREEEEQQEGGFASPRTGKGKWKRKDAGGGPSRAGSPRRTSKKTKVEPY	
1.03±0.0102	-1.125E4±153.8 cal/mol	-11.4	SpacerS639D: mutation S639D of the Spacer, negative control (protein, left off: GST, end not stated, cleaved, mutation S639D of the Spacer, negative control) PGPWTKEGKDRIKKLGLTMQYPEGYLEALANREREKENSKREEEEQQEGGFADPRTGKGKWKRKSAGGGPSRAGSPRRTSKKTKVEPY	
0.967±0.0122	-6.475 ± 0.1071 kcal/mol	2.57	Spacer∆650-654: internal deletion of the Spacer, residues 650–654 (protein, left off: GST, end not stated, cleaved) PGPWTKEGKDRIKKLGLTMQYPEGYLEALANREREKENSKREEEEQQEGGFASPRTGKGKWKRGPSRAGSPRRTSKKTKVEPY	
0.988±0.0147	-7.634 ± 0.1561 kcal/mol	-0.906	Spacer∆655-659: internal deletion of the Spacer, residues 655–659 (protein, left off: GST, end not stated, cleaved) PGPWTKEGKDRIKKLGLTMQYPEGYLEALANREREKENSKREEEEQQEGGFASPRTGKGKWKRKSAGGGSPRRTSKKTKVEPY	
1.01±0.00976		-10.2	Spacer∆660-664: internal deletion of the Spacer, residues 660–664 (protein, left off: GST, end not stated, cleaved) PGPWTKEGKDRIKKLGLTMQYPEGYLEALANREREKENSKREEEEQQEGGFASPRTGKGKWKRKSAGGGPSRATSKKTKVEPY	
			TTD-PHDRR295,296DD: mutation R295D/R296D (within the Linker) of TTD–PHD (protein, left off: GST, end not stated, cleaved, mutation R295D/R296D (within the Linker) of TTD–PHD) LYKVNEYVDARDTNMGAWFEAQVVRVTRKAPSRDEPCSSTSRPALEEDVIYHVKYDDYPENGVVQMNSRDVRARARTIIKWQDLEVGQVVMLNYNPDNPKERGFWYDAEISRKRETRTARELYANVVLGDDSLNDCRIIFVDEVFKIERPGEGSPMVDNPMDDKSGPSCKHCKDDVNRLCRVCACHLCGGRQDPDKQLMCDECDMAFHIYCLDPPLSSVPSEDEWYCPECRND	N ([2]; Spacer in syringe): 0.944±0.0158; Kd [2, 3]: 2.69 µM; ΔH ([2]; ITC, Spacer in syringe): -1.399E4±290.7 cal/mol; ΔS ([2]; ITC, Spacer in syringe): -22.5 cal/mol/deg
1.06±0.00978		-12.9	Spacer∆665-669: internal deletion of the Spacer, residues 665–669 (protein, left off: GST, end not stated, cleaved) PGPWTKEGKDRIKKLGLTMQYPEGYLEALANREREKENSKREEEEQQEGGFASPRTGKGKWKRKSAGGGPSRAGSPRRKVEPY	
1.1±0.0102		-9.46	Spacer∆670-674: deletion of the Spacer, residues 670–674 (protein, left off: GST, end not stated, cleaved) PGPWTKEGKDRIKKLGLTMQYPEGYLEALANREREKENSKREEEEQQEGGFASPRTGKGKWKRKSAGGGPSRAGSPRRTSKKT	
			TTD: tandem Tudor domain of human UHRF1 (residues 134–285) (protein, UniProt Q96T88 134-285, looked up, fragment, tandem Tudor domain) LYKVNEYVDARDTNMGAWFEAQVVRVTRKAPSRDEPCSSTSRPALEEDVIYHVKYDDYPENGVVQMNSRDVRARARTIIKWQDLEVGQVVMLNYNPDNPKERGFWYDAEISRKRETRTARELYANVVLGDDSLNDCRIIFVDEVFKIERPGE	N ([2]; Spacer in syringe): 0.991±0.0134; Kd [2, 3]: 1.48 µM; Kd [2, 4]: 1.59 µM; ΔH ([2]; ITC, Spacer in syringe): -1.614E4±297.4 cal/mol; ΔS ([2]; ITC, Spacer in syringe): -28.7 cal/mol/deg; interaction between the Spacer and the named protein in the presence of H3K9me3 ([2]; ITC, molar ratio of TTD-PHD or TTD: H3K9me3=1:2): No detectable interaction
			TTDD142A,E153A: mutation D142A/E153A of the TTD (protein, left off: GST, end not stated, cleaved, mutation D142A/E153A of the TTD) LYKVNEYVAARDTNMGAWFAAQVVRVTRKAPSRDEPCSSTSRPALEEDVIYHVKYDDYPENGVVQMNSRDVRARARTIIKWQDLEVGQVVMLNYNPDNPKERGFWYDAEISRKRETRTARELYANVVLGDDSLNDCRIIFVDEVFKIERPGE	KD [2, 4]: abolished
